Assay [1] addresses LD655-labeled p97 D592AzF (human) (UniProt P55072). Put plainly: cryo-EM structure; datasets 1 and 2: 12.5 uM ^LD655p97^D592AzF, 10 uM UN, 10 uM Faf1 FH-UBX, 20 uM Ub-^Cy3Ub-Ubn, GF buffer with 5 mM ATP, 0.06% CHAPS, 0.04% octyl-β-D-glucopyranoside, frozen at once after mixing; PI state, I state, Npl4 local map, IC1 and IC2.
Assay [2] shares this target. Put plainly: FRET or BRET; stopped-flow mixing, 37°C, with ATP; 1 uM ^LD655p97/UN/Faf1 and 0.1 uM Ub-^Cy3Ub-Ubn chains; excitation 480 nm; apparent time constant. A general note: BRET reads energy transfer from a luciferase to a nearby fluorophore.
For the next assay, the target named is T1, Ufd1 (human) (human).
T1 sequence (Q92890 1-307, looked up): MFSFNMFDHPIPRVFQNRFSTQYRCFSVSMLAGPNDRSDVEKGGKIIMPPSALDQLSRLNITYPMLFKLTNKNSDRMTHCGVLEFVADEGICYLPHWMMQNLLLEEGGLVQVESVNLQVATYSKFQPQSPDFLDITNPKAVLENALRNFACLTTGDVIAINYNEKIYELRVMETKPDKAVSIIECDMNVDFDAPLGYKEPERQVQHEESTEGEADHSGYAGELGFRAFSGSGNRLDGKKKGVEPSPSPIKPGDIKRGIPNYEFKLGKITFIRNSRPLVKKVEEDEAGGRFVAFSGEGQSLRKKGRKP

As to “Faf1 FH-UBX fragment (from UniProt Q9UNN5 481-650) (domain or fragment)”, the stoichiometry N (per p97 hexamer) in assay [1] was 2.

Take “unanchored poly-ubiquitin chains with Cy3 on the second ubiquitin (Ub-^Cy3Ub-Ubn) (from UniProt P0CG48 1-76; P0CG48 1-76; P0CG48 1-76)”: the apparent time constant of ubiquitin insertion (τinitiation) in assay [2] amounted to 5.1 s.

B1: Faf2 Δ1-271 (domain or fragment)
chain: YLVSERLEREERNQTQVLRQQQDEAYLASLRADQEKERKKREERERKRRKEEEVQQQKLAEERRRQNLQEEKERKLECLPPEPSPDDPESVKIIFKLPNDSRVERRFHFSQSLTVIHDFLFSLKESPEKFQIEANFPRRVLPCIPSEEWPNPPTLQEAGLSHTEVLFVQDLTDE
Take B1: in the assay with Ufd1 (human) (human), the Eos-unfolding activity of p97-UN came to 5 fold.
